The results in this text go back to article PMC7367873, “Dissecting the sequence determinants for dephosphorylation by the catalytic subunits of phosphatases PP1 and PP2A” (Nature Communications, 2020).

The subject of test [1] is GFP-14-3-3β and its binding proteins. Put plainly: GFP-14-3-3β co-IP with LC-MS/MS label-free quantification, untreated versus PP1c-treated. The arrangement: species or system human. Conditions: pairwise comparison PP1 vs untreated, student's t-test; 3 replicates each; LC-MS/MS label-free quantification.
A further test deals with GFP-14-3-3β. Put plainly: GFP-14-3-3β co-IP with LC-MS/MS, untreated GFP-14-3-3β versus GFP control (14-3-3 interactome). Type of test: binding, human. To be noted: pairwise comparison untreated GFP-14-3-3β vs GFP, student's t-test; 3 replicates each; LC-MS/MS label-free quantification.

B1: USP8 (protein, UniProt P40818 1-1118, looked up)
Ubiquitin carboxyl-terminal …: MPAVASVPKELYLSSSLKDLNKKTEVKPEKISTKSYVHSALKIFKTAEECRLDRDEERAYVLYMKYVTVYNLIKKRPDFKQQQDYFHSILGPGNIKKAVEEAERLSESLKLRYEEAEVRKKLEEKDRQEEAQRLQQKRQETGREDGGTLAKGSLENVLDSKDKTQKSNGEKNEKCETKEKGAITAKELYTMMTDKNISLIIMDARRMQDYQDSCILHSLSVPEEAISPGVTASWIEAHLPDDSKDTWKKRGNVEYVVLLDWFSSAKDLQIGTTLRSLKDALFKWESKTVLRNEPLVLEGGYENWLLCYPQYTTNAKVTPPPRRQNEEVSISLDFTYPSLEESIPSKPAAQTPPASIEVDENIELISGQNERMGPLNISTPVEPVAASKSDVSPIIQPVPSIKNVPQIDRTKKPAVKLPEEHRIKSESTNHEQQSPQSGKVIPDRSTKPVVFSPTLMLTDEEKARIHAETALLMEKNKQEKELRERQQEEQKEKLRKEEQEQKAKKKQEAEENEITEKQQKAKEEMEKKESEQAKKEDKETSAKRGKEITGVKRQSKSEHETSDAKKSVEDRGKRCPTPEIQKKSTGDVPHTSVTGDSGSGKPFKIKGQPESGILRTGTFREDTDDTERNKAQREPLTRARSEEMGRIVPGLPSGWAKFLDPITGTFRYYHSPTNTVHMYPPEMAPSSAPPSTPPTHKAKPQIPAERDREPSKLKRSYSSPDITQAIQEEEKRKPTVTPTVNRENKPTCYPKAEISRLSASQIRNLNPVFGGSGPALTGLRNLGNTCYMNSILQCLCNAPHLADYFNRNCYQDDINRSNLLGHKGEVAEEFGIIMKALWTGQYRYISPKDFKITIGKINDQFAGYSQQDSQELLLFLMDGLHEDLNKADNRKRYKEENNDHLDDFKAAEHAWQKHKQLNESIIVALFQGQFKSTVQCLTCHKKSRTFEAFMYLSLPLASTSKCTLQDCLRLFSKEEKLTDNNRFYCSHCRARRDSLKKIEIWKLPPVLLVHLKRFSYDGRWKQKLQTSVDFPLENLDLSQYVIGPKNNLKKYNLFSVSNHYGGLDGGHYTAYCKNAARQRWFKFDDHEVSDISVSSVKSSAAYILFYTSLGPRVTDVAT
Take B1: the “Difference (log2), PP1 vs untreated” value in test [1] is -3.991 log2. In addition, in the test with GFP-14-3-3β, the “Difference (log2), untreated vs GFP” value is on record as 6.726 log2.

B2: RAPGEF2 (protein, UniProt Q9Y4G8 1-1499, looked up)
Rap guanine nucleotide …: MKPLAIPANHGVMGQQEKHSLPADFTKLHLTDSLHPQVTHVSSSHSGCSITSDSGSSSLSDIYQATESEAGDMDLSGLPETAVDSEDDDDEEDIERASDPLMSRDIVRDCLEKDPIDRTDDDIEQLLEFMHQLPAFANMTMSVRRELCAVMVFAVVERAGTIVLNDGEELDSWSVILNGSVEVTYPDGKAEILCMGNSFGVSPTMDKEYMKGVMRTKVDDCQFVCIAQQDYCRILNQVEKNMQKVEEEGEIVMVKEHRELDRTGTRKGHIVIKGTSERLTMHLVEEHSVVDPTFIEDFLLTYRTFLSSPMEVGKKLLEWFNDPSLRDKVTRVVLLWVNNHFNDFEGDPAMTRFLEEFENNLEREKMGGHLRLLNIACAAKAKRRLMTLTKPSREAPLPFILLGGSEKGFGIFVDSVDSGSKATEAGLKRGDQILEVNGQNFENIQLSKAMEILRNNTHLSITVKTNLFVFKELLTRLSEEKRNGAPHLPKIGDIKKASRYSIPDLAVDVEQVIGLEKVNKKSKANTVGGRNKLKKILDKTRISILPQKPYNDIGIGQSQDDSIVGLRQTKHIPTALPVSGTLSSSNPDLLQSHHRILDFSATPDLPDQVLRVFKADQQSRYIMISKDTTAKEVVIQAIREFAVTATPDQYSLCEVSVTPEGVIKQRRLPDQLSKLADRIQLSGRYYLKNNMETETLCSDEDAQELLRESQISLLQLSTVEVATQLSMRNFELFRNIEPTEYIDDLFKLRSKTSCANLKRFEEVINQETFWVASEILRETNQLKRMKIIKHFIKIALHCRECKNFNSMFAIISGLNLAPVARLRTTWEKLPNKYEKLFQDLQDLFDPSRNMAKYRNVLNSQNLQPPIIPLFPVIKKDLTFLHEGNDSKVDGLVNFEKLRMIAKEIRHVGRMASVNMDPALMFRTRKKKWRSLGSLSQGSTNATVLDVAQTGGHKKRVRRSSFLNAKKLYEDAQMARKVKQYLSNLELEMDEESLQTLSLQCEPATNTLPKNPGDKKPVKSETSPVAPRAGSQQKAQSLPQPQQQPPPAHKINQGLQVPAVSLYPSRKKVPVKDLPPFGINSPQALKKILSLSEEGSLERHKKQAEDTISNASSQLSSPPTSPQSSPRKGYTLAPSGTVDNFSDSGHSEISSRSSIVSNSSFDSVPVSLHDERRQRHSVSIVETNLGMGRMERRTMIEPDQYSLGSYAPMSEGRGLYATATVISSPSTEELSQDQGDRASLDAADSGRGSWTSCSSGSHDNIQTIQHQRSWETLPFGHTHFDYSGDPAGLWASSSHMDQIMFSDHSTKYNRQNQSRESLEQAQSRASWASSTGYWGEDSEGDTGTIKRRGGKDVSIEAESSSLTSVTTEETKPVPMPAHIAVASSTTKGLIARKEGRYREPPPTPPGYIGIPITDFPEGHSHPARKPPDYNVALQRSRMVARSSDTAGPSSVQQPHGHPTSSRPVNKPQWHKPNESDPRLAPYQSQGFSTEEDEDEQVSAV
For B2, in test [1], the “Difference (log2), PP1 vs untreated” value is recorded as -3.585 log2. The “Difference (log2), untreated vs GFP” value in the test with GFP-14-3-3β was found to be 2.788 log2.

B3: CCDC6 (protein, UniProt Q16204 2-474, looked up)
Coiled-coil domain-containing …: ADSASESDTDGAGGNSSSSAAMQSSCSSTSGGGGGGGGGGGGGKSGGIVISPFRLEELTNRLASLQQENKVLKIELETYKLKCKALQEENRDLRKASVTIQARAEQEEEFISNTLFKKIQALQKEKETLAVNYEKEEEFLTNELSRKLMQLQHEKAELEQHLEQEQEFQVNKLMKKIKKLENDTISKQLTLEQLRREKIDLENTLEQEQEALVNRLWKRMDKLEAEKRILQEKLDQPVSAPPSPRDISMEIDSPENMMRHIRFLKNEVERLKKQLRAAQLQHSEKMAQYLEEERHMREENLRLQRKLQREMERREALCRQLSESESSLEMDDERYFNEMSAQGLRPRTVSSPIPYTPSPSSSRPISPGLSYASHTVGFTPPTSLTRAGMSYYNSPGLHVQHMGTSHGITRPSPRRSNSPDKFKRPTPPPSPNTQTPVQPPPPPPPPPMQPTVPSAATSQPTPSQHSAHPSSQP
On to B3, for which, in test [1], the “Difference (log2), PP1 vs untreated” value is recorded as -3.654 log2. Besides, in the test on GFP-14-3-3β, the “Difference (log2), untreated vs GFP” value is listed as 4.515 log2.

B4: NCKAP1 (protein, UniProt Q9Y2A7 2-1128, looked up)
Nck-associated protein 1: SRSVLQPSQQKLAEKLTILNDRGVGMLTRLYNIKKACGDPKAKPSYLIDKNLESAVKFIVRKFPAVETRNNNQQLAQLQKEKSEILKNLALYYFTFVDVMEFKDHVCELLNTIDVCQVFFDITVNFDLTKNYLDLIITYTTLMILLSRIEERKAIIGLYNYAHEMTHGASDREYPRLGQMIVDYENPLKKMMEEFVPHSKSLSDALISLQMVYPRRNLSADQWRNAQLLSLISAPSTMLNPAQSDTMPCEYLSLDAMEKWIIFGFILCHGILNTDATALNLWKLALQSSSCLSLFRDEVFHIHKAAEDLFVNIRGYNKRINDIRECKEAAVSHAGSMHRERRKFLRSALKELATVLSDQPGLLGPKALFVFMALSFARDEIIWLLRHADNMPKKSADDFIDKHIAELIFYMEELRAHVRKYGPVMQRYYVQYLSGFDAVVLNELVQNLSVCPEDESIIMSSFVNTMTSLSVKQVEDGEVFDFRGMRLDWFRLQAYTSVSKASLGLADHRELGKMMNTIIFHTKMVDSLVEMLVETSDLSIFCFYSRAFEKMFQQCLELPSQSRYSIAFPLLCTHFMSCTHELCPEERHHIGDRSLSLCNMFLDEMAKQARNLITDICTEQCTLSDQLLPKHCAKTISQAVNKKSKKQTGKKGEPEREKPGVESMRKNRLVVTNLDKLHTALSELCFSINYVPNMVVWEHTFTPREYLTSHLEIRFTKSIVGMTMYNQATQEIAKPSELLTSVRAYMTVLQSIENYVQIDITRVFNNVLLQQTQHLDSHGEPTITSLYTNWYLETLLRQVSNGHIAYFPAMKAFVNLPTENELTFNAEEYSDISEMRSLSELLGPYGMKFLSESLMWHISSQVAELKKLVVENVDVLTQMRTSFDKPDQMAALFKRLSSVDSVLKRMTIIGVILSFRSLAQEALRDVLSYHIPFLVSSIEDFKDHIPRETDMKVAMNVYELSSAAGLPCEIDPALVVALSSQKSENISPEEEYKIACLLMVFVAVSLPTLASNVMSQYSPAIEGHCNNIHCLAKAINQIAAALFTIHKGSIEDRLKEFLALASSSLLKIGQETDKTTTRNRESVYLLLDMIVQESPFLTMDLLESCFPYVLLRNAYHAVYKQSVTSSA
Regarding B4, the “Difference (log2), PP1 vs untreated” value in test [1] is -3.667 log2. Besides, the “Difference (log2), untreated vs GFP” value with GFP-14-3-3β was 2.589 log2.

B5: IRS2 (protein, UniProt Q9Y4H2 1-1338, looked up)
Insulin receptor substrate 2: MASPPRHGPPGPASGDGPNLNNNNNNNNHSVRKCGYLRKQKHGHKRFFVLRGPGAGGDEATAGGGSAPQPPRLEYYESEKKWRSKAGAPKRVIALDCCLNINKRADAKHKYLIALYTKDEYFAVAAENEQEQEGWYRALTDLVSEGRAAAGDAPPAAAPAASCSASLPGALGGSAGAAGAEDSYGLVAPATAAYREVWQVNLKPKGLGQSKNLTGVYRLCLSARTIGFVKLNCEQPSVTLQLMNIRRCGHSDSFFFIEVGRSAVTGPGELWMQADDSVVAQNIHETILEAMKALKELFEFRPRSKSQSSGSSATHPISVPGARRHHHLVNLPPSQTGLVRRSRTDSLAATPPAAKCSSCRVRTASEGDGGAAAGAAAAGARPVSVAGSPLSPGPVRAPLSRSHTLSGGCGGRGSKVALLPAGGALQHSRSMSMPVAHSPPAATSPGSLSSSSGHGSGSYPPPPGPHPPLPHPLHHGPGQRPSSGSASASGSPSDPGFMSLDEYGSSPGDLRAFCSHRSNTPESIAETPPARDGGGGGEFYGYMTMDRPLSHCGRSYRRVSGDAAQDLDRGLRKRTYSLTTPARQRPVPQPSSASLDEYTLMRATFSGSAGRLCPSCPASSPKVAYHPYPEDYGDIEIGSHRSSSSNLGADDGYMPMTPGAALAGSGSGSCRSDDYMPMSPASVSAPKQILQPRAAAAAAAAVPSAGPAGPAPTSAAGRTFPASGGGYKASSPAESSPEDSGYMRMWCGSKLSMEHADGKLLPNGDYLNVSPSDAVTTGTPPDFFSAALHPGGEPLRGVPGCCYSSLPRSYKAPYTCGGDSDQYVLMSSPVGRILEEERLEPQATPGPSQAASAFGAGPTQPPHPVVPSPVRPSGGRPEGFLGQRGRAVRPTRLSLEGLPSLPSMHEYPLPPEPKSPGEYINIDFGEPGARLSPPAPPLLASAASSSSLLSASSPASSLGSGTPGTSSDSRQRSPLSDYMNLDFSSPKSPKPGAPSGHPVGSLDGLLSPEASSPYPPLPPRPSASPSSSLQPPPPPPAPGELYRLPPASAVATAQGPGAASSLSSDTGDNGDYTEMAFGVAATPPQPIAAPPKPEAARVASPTSGVKRLSLMEQVSGVEAFLQASQPPDPHRGAKVIRADPQGGRRRHSSETFSSTTTVTPVSPSFAHNPKRHNSASVENVSLRKSSEGGVGVGPGGGDEPPTSPRQLQPAPPLAPQGRPWTPGQPGGLVGCPGSGGSPMRRETSAGFQNGLNYIAIDVREEPGLPPQPQPPPPPLPQPGDKSSWGRTRSLGGLISAVGVGSTGGGCGGPGPGALPPANTYASIDFLSHHLKEATIVKE
For B5, the “Difference (log2), PP1 vs untreated” value in test [1] was -3.665 log2. The “Difference (log2), untreated vs GFP” value in the test with GFP-14-3-3β was found to be 7.914 log2.
